One molecule from article PMC5993198 can be followed below.

This series has as its target rBac-RelA (human? (hRelA; expressed in Sf9), UniProt Q04206 1-551). Description: fluorescence anisotropy. (Fluorescence polarisation rises when a labelled molecule tumbles more slowly, as on binding a larger partner.)

Chain of rBac-RelA (Q04206 whole entry): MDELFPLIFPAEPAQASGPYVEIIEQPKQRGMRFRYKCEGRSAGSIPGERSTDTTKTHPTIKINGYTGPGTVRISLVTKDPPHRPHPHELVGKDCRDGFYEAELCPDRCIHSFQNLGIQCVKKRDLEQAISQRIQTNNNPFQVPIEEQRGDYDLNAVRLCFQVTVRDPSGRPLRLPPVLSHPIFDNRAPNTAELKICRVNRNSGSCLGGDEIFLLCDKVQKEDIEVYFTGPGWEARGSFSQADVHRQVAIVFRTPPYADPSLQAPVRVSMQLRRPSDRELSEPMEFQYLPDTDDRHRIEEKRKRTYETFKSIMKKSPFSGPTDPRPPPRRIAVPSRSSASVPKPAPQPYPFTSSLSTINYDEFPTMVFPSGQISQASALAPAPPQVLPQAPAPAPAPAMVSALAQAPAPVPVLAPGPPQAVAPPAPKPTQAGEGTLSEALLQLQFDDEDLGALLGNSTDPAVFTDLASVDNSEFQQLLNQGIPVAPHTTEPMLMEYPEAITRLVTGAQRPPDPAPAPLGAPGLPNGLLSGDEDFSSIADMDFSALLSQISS

Turning to ATCGTGGGAAAGTTTCTGGATATTCCCTTGGA (ssDNA) [fluorescein ssDNA negative control containing κB site], the binding result is reported as “no binding”.
